From article PMC2779847

Legend:
[1] = biological target: MsDps2 protein (second Dps homologue of Mycobacterium smegmatis) (Mycobacterium smegmatis); assay: native gel or EMSA; 10% native gel; BSA and ferritin as markers; oligomeric state of the purified protein
[2] = biological target: MsDps2 protein (second Dps homologue of Mycobacterium smegmatis) (Mycobacterium smegmatis); assay: negative-stain transmission electron microscopy; MsDps2 in 20 mM Tris, 200 mM NaCl on copper grids, stained with uranyl acetate, 80 kV, 50,000x
[3] = biological target: MsDps2ΔN15 (MsDps2 lacking 15 amino acids from the N-terminus) (Mycobacterium smegmatis); assay: native gel or EMSA; 10% native gel; BSA and ferritin as markers; oligomeric state of the purified protein

Row | stoichiometry N [1] | stoichiometry N [2] | stoichiometry N [3] | Substance
1 | 12 | 12 |  | MsDps2 protein (second Dps homologue of Mycobacterium smegmatis) (natural protein)
2 |  |  | 12 | MsDps2ΔN15 (MsDps2 lacking 15 amino acids from the N-terminus) (domain or fragment)
